Holding throughout (format): cell-based
For one test, the target named is T1, CSNK2B-U (Homo sapiens, UniProt P63279+P67870).
T1 construct: expressed in transfected cells; host or cells: HEK293
The test is described as follows: Trans-SUMOylation by CSNK2B-U. The following applies: protein 2 construct coexpressed with CSNK2B-U and EGFP-SUMO1 in HEK293, Table 1.

Another test has as its target T2, U-p38α (Homo sapiens, UniProt P63279+Q16539).
T2 construct: expressed in transfected cells; host or cells: HEK293
Put plainly: Trans-SUMOylation by U-p38α. The following applies: protein 2 construct coexpressed with U-p38α and EGFP-SUMO1 in HEK293.

Another test addresses T3, U-MK2 (Homo sapiens, UniProt P49137+P63279).
T3 construct: expressed in transfected cells; host or cells: HEK293
Put plainly: Trans-SUMOylation by U-MK2. As to conditions: protein 2 construct coexpressed with U-MK2 and EGFP-SUMO1 in HEK293.

The next test has as its target T4, JUN-U (Homo sapiens, UniProt P05412+P63279).
T4 construct: expressed in transfected cells; host or cells: HEK293
The test is described as follows: Trans-SUMOylation by JUN-U. As to conditions: protein 2 construct coexpressed with JUN-U and EGFP-SUMO1 in HEK293, western blot.

A further test concerns the target T5, p53-U (Homo sapiens, UniProt P04637+P63279).
T5 construct: expressed in transfected cells; host or cells: HEK293
The test is described as follows: Trans-SUMOylation by p53-U. The following applies: western blot. (In general: In western blotting, separated proteins are transferred to a membrane and probed.)

The next test has as its target T6, MK2-U (Homo sapiens, UniProt P49137+P63279).
T6 construct: expressed in transfected cells; host or cells: HEK293
The test is described as follows: Trans-SUMOylation by MK2-U. As to conditions: protein 2 construct coexpressed with MK2-U and EGFP-SUMO1 in HEK293.

The target in the next test is T7, U-MK5 (Homo sapiens, UniProt P63279+Q8IW41).
T7 construct: expressed in transfected cells; host or cells: HEK293
T7 sequence (P63279+Q8IW41 fused): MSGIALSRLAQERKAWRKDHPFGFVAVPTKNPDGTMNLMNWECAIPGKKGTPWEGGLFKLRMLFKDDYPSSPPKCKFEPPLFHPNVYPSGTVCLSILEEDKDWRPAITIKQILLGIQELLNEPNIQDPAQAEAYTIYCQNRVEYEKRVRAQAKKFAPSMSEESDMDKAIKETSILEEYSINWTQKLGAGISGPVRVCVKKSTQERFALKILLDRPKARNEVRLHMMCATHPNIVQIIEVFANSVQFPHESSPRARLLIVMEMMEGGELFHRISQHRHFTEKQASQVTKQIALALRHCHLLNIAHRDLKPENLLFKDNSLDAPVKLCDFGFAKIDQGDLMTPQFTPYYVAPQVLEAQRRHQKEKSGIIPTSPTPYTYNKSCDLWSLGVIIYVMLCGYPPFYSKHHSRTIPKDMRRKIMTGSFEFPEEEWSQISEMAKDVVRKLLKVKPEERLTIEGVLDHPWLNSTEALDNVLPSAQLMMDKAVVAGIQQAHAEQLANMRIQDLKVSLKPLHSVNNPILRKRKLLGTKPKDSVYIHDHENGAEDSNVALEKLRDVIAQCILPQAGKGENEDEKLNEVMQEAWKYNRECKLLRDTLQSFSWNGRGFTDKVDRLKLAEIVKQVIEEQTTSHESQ
The test is described as follows: Trans-SUMOylation by U-MK5. As to conditions: protein 2 construct coexpressed with U-MK5 and EGFP-SUMO1 in HEK293; western blot; Table 2. Set-up: key: (++), strong TransSUMOylation; (+), TransSUMOylation; (+/−) weak TransSUMOylation; (−) no detectable TransSUMOylation. An excerpt: (§1) To identify new SUMOylation substrates and to study the function of SUMOylation the Ubc9/substrate dimerisation-dependent SUMOylation system (USDDS) was developed which consists of fusions of the SUMOylation substrate and of the SUMO-conjugating enzyme Ubc9 to the chemically activatable heterodimerisation domains FKBP and FRB, respectively, as shown in FIG. 2. When the substrate protein fused to FKBP is coexpressed with Ubc9-FRB, treatment of HEK293 cells with the rapamycin-related dimerizer AP21967 induces SUMOylation of the substrate protein fused to FKBP at its specific SUMOylation site. […] Dependent on an EcoRl site in the coding sequence, seven C-terminal amino acids of the human STAT1a in the STAT1-FKBP/FRB fusion proteins are missing. For the SUMOylation analysis HEK293 (human embryonic kidney cells) cells have been used. HEK293 cells were cultured in Dulbecco's modified Eagle's medium with high glucose, complemented with 10% fetal calf serum, 2 mM L-glutamine, 100 U/ml penicillin and […] streptomycin. We performed transfection of HEK293 cells using the polyethylenimine transfection reagent. HEK293 cells of a fresh confluent 10 cm plate were transferred on a 12-well plate. After 12-24 h incubation about 70% cell confluence is reached. For each well 45 μl of serum/antibiotic free DMEM medium is mixed with 750 ng of the transfection-purity expression vector DNA (all together 47 μl) and vortexed. Then, 3 μl of vortexed polyethylenimin stock solution (1 mg/ml) is added and the mixture is vortexed. After incubation at room temperature for 10 min 450 μl fresh DMEM with antibiotics is added to the mixture and vortexed. The medium on the cells was then completely removed and immediately, the 500 μl transfection mix was added carefully to each well. The 12 well plate was rocked to ensure a proper distribution of the DNA/transfection reagent complex. After an incubation of the cells for 24 h at a 37° C. in a humidified CO2-incubator (5%) the cells were lysed in 150 μl Laemmli (2×) gel loading buffer (160 mM Tris-HCL, pH 6.8, 4% (w/v) sodium dodecyl sulphate (SDS), 20% (v/v) glycerol, 0.5% β-mercaptoethanol (v/v), 0.008% (w/v) bromophenol blue) and incubated for 10 min at 95° C. For western blot analysis the proteins were separated by SDS-PAGE, blotted on a PVDF membrane and developed with specific primary antibodies (α-Ubc9 (H81, Santa Cruz), α-pY701-STAT1 (Tyr701, Cell Signaling), α-STAT1 (Cell Signaling), α-p53 (1C12, Cell Signaling), α-SUMO1 (Cell Signaling), a horseradish peroxidase (HRP)-conjugated secondary antibody (different companies), the ECL+ (Amersham) or Immobilon™ Western (Millipore) and the LAS-3000 imaging system (Fuji).
As shown above, the SUMOylation of a protein of interest can be induced by the heterodimerisation with a binding protein fused to Ubc9. To find out if Trans-SUMOylation is useful for the characterisation of common protein interactions, protein binding pairs well known from the literature or found in two hybrid screens. […] Therefore the protein pairs were coexpressed with EGFP-SUMO1 in HEK293 cells and after 24h the transfectants were lysed and the protein extracts were analyzed in western blots.
Protein-protein interactions described in the cited references were tested for Trans-SUMOylation. Each specific protein-protein interaction was tested by coexpression of different combinations of protein 1 fused to Ubc9 (U) with protein 2 mostly fused two a tag (HA, FLAG, Myc, GST, ST). (++), strong TransSUMOylation; (+), TransSUMOylation; (+/−) weak TransSUMOylation; (−) no detectable TransSUMOylation; (MEKK1ca) the activated MAP3 kinase MEKK1, that can enhance protein SUMOylation, was coexpressed.
Protein-protein interaction of each pair of protein 1/protein 2 was tested by coexpression of different combinations of a protein 1 fused to Ubc9 (U) with protein 2 mostly fused two a Tag (HA, FLAG, GST, ST). […]

The next test addresses T8, U-CSNK2B (Homo sapiens, UniProt P63279+P67870).
T8 construct: expressed in transfected cells; host or cells: HEK293
Put plainly: Trans-SUMOylation by U-CSNK2B. Set-up: key: (++), strong TransSUMOylation; (+), TransSUMOylation; (+/−) weak TransSUMOylation; (−) no detectable TransSUMOylation. As to conditions: protein 2 construct coexpressed with U-CSNK2B and EGFP-SUMO1 in HEK293; western blot; Table 2.
Description: as §1, with “The 12 well plate was rocked to ensure a proper distribution of the DNA/transfection reagent complex. After an incubation of the cells for 24 h at a 37° C. in a humidified CO2-incubator (5%) the cells were lysed in 150 μl Laemmli (2×) gel loading buffer (160 mM Tris-HCL, pH 6.8, 4% (w/v) sodium dodecyl sulphate (SDS), 20% (v/v) glycerol, 0.5% β-mercaptoethanol (v/v), 0.008% (w/v) bromophenol blue) and incubated for 10 min at 95° C. For western blot analysis the proteins were separated by SDS-PAGE, blotted on a PVDF membrane and developed with specific primary antibodies (α-Ubc9 (H81, Santa Cruz), α-pY701-STAT1 (Tyr701, Cell Signaling), α-STAT1 (Cell Signaling), α-p53 (1C12, Cell Signaling), α-SUMO1 (Cell Signaling), a horseradish peroxidase (HRP)-conjugated secondary antibody (different companies), the ECL+ (Amersham) or Immobilon™ Western (Millipore) and the LAS-3000 imaging system (Fuji).” left out
As shown above, the SUMOylation of a protein of interest can be induced by the heterodimerisation with a binding protein fused to Ubc9. […] Therefore the protein pairs were coexpressed with EGFP-SUMO1 in HEK293 cells and after 24h the transfectants were lysed and the protein extracts were analyzed in western blots. […]

Where [1] appears, read: protein 2 construct coexpressed with P53-U (p53-U) and EGFP-SUMO1 in HEK293, Table 1.

T2 sequence (P63279+Q16539 fused): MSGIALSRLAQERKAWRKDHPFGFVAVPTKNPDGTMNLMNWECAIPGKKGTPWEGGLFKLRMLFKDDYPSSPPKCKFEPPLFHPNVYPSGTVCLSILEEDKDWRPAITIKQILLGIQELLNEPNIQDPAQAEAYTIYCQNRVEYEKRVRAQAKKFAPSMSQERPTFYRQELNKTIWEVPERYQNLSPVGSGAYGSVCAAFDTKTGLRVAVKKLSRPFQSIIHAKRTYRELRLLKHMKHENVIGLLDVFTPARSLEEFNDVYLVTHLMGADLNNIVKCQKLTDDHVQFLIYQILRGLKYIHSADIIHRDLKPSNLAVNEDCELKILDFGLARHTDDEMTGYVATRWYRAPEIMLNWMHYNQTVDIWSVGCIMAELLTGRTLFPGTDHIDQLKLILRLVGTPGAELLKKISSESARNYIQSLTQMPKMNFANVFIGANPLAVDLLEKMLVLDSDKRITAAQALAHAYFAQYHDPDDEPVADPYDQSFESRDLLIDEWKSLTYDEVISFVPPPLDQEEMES
T6 sequence (P49137+P63279 fused): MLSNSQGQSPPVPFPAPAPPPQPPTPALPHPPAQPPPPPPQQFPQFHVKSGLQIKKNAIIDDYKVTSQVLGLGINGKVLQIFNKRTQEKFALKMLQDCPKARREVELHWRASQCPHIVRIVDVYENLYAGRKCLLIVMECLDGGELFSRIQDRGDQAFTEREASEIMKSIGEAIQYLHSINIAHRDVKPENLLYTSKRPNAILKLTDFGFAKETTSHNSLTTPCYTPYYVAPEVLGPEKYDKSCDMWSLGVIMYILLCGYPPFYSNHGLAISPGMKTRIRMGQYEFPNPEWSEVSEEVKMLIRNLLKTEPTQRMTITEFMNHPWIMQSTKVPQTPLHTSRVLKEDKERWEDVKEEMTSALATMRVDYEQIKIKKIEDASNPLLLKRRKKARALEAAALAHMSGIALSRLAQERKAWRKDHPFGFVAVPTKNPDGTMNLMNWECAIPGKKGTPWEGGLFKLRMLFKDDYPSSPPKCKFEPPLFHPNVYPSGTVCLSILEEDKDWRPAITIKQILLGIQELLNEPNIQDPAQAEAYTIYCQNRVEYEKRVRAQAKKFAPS
T4 sequence (P05412+P63279 fused): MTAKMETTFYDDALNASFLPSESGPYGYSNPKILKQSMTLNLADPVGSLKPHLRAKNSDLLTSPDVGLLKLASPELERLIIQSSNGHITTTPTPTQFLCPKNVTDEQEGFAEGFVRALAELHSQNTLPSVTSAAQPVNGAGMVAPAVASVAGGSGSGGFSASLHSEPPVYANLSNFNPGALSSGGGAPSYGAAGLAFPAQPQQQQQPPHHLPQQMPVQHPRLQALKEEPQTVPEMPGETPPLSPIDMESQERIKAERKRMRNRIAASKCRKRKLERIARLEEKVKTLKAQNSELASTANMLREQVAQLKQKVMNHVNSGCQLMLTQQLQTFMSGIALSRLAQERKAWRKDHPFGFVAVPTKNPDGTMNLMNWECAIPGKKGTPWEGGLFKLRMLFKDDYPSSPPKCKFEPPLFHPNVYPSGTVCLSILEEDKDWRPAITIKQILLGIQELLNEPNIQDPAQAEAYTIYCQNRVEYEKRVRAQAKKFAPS
T3 sequence (P63279+P49137 fused): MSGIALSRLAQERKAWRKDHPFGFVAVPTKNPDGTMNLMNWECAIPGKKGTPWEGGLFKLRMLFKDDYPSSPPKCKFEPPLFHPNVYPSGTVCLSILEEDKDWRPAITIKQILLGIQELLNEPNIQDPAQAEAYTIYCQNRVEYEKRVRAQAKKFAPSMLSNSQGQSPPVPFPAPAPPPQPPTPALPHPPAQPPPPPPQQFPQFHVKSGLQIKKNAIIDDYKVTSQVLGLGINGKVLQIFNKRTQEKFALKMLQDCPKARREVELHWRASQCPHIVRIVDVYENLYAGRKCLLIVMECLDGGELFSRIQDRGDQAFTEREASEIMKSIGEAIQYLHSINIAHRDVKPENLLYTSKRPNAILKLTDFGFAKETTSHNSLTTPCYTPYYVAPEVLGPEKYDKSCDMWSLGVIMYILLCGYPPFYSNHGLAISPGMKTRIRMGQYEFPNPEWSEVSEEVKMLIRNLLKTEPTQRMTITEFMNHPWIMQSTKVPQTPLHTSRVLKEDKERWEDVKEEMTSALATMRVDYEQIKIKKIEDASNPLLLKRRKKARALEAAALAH
T1 sequence (P67870+P63279 fused): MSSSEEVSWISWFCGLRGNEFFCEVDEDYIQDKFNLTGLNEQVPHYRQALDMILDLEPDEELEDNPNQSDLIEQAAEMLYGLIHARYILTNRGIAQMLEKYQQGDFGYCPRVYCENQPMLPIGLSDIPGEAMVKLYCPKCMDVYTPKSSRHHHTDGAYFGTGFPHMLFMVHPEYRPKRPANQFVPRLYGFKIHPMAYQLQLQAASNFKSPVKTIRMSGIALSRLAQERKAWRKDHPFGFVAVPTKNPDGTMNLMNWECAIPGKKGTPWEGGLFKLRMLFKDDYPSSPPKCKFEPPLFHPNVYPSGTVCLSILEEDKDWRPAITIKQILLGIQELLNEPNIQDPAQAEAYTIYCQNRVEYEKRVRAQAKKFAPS
T8 sequence (P63279+P67870 fused): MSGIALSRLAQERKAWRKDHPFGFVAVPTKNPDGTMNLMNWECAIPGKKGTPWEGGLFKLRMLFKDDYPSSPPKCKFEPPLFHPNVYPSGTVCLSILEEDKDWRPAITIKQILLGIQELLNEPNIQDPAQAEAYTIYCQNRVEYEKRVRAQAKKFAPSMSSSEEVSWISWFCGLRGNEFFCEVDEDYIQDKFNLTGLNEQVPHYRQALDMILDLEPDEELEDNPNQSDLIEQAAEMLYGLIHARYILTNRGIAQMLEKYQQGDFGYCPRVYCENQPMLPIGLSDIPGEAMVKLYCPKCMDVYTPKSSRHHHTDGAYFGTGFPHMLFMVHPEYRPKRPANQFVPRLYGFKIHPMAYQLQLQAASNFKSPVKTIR

Regarding HA-CSNK2B: CSNK2B fused to HA tag, in the test with CSNK2B-U (MEKK1ca coexpressed), the Trans-SUMOylation result is reported as “+ (MEKK1ca)”.

Regarding HA-ERK2: ERK2 fused to HA tag, the Trans-SUMOylation entry is given as “+” with U-p38α (western blot, Table 1); “+” with U-MK2 (western blot, Table 1); “−” with JUN-U (Table 2); “+” in the test with p53-U (setting [1]).

Regarding HA-HSP27: HSP27 fused to HA tag, the Trans-SUMOylation result was “−” with U-MK2 (western blot, Table 1) and “−” in the test with MK2-U (western blot, Table 1).

HA-JNK2: JNK2 fused to HA tag: the Trans-SUMOylation entry is listed as “−” with U-p38α (western blot, Table 2); “−” in the test with U-MK2 (western blot, Table 2); “−” in the test with JUN-U (Table 1); “−” with U-MK5; “−” with p53-U (setting [1]).

Consider HA-JUN: JUN fused to HA tag, for which the Trans-SUMOylation result with MK2-U (western blot, Table 2) is listed as “(+/−)”; with JUN-U (Table 1), “+”.

For the substance Myc-MK2: MK2 fused to Myc tag, the Trans-SUMOylation result with U-p38α (MEKK1ca (Table 1B: MEKK1) coexpressed, Table 1) is “++ (MEKK1ca)”; with U-p38α (western blot, Table 1), “+”; with U-MK2 (MEKK1 coexpressed, Table 2), “+ (MEKK1)”; with U-MK2 (western blot, Table 2), “−”; in the test with MK2-U (MEKK1 coexpressed, Table 2), “+ (MEKK1)”; with MK2-U (western blot, Table 2), “+”. The Trans-SUMOylation entry is given as “−” with JUN-U (Table 2); “+” in the test with U-MK5; “(+/−)” in the test with U-CSNK2B; “−” with p53-U (protein 2 construct coexpressed with p53-U and EGFP-SUMO1 in HEK293, Table 2).

As to “p53K386R-ST(377-389): p53K386R fused to SUMOylation site tag 377-389”, the Trans-SUMOylation result with CSNK2B-U (western blot) was “+”; in the test with U-MK2 (western blot, Table 2), “−”.

Take “p53K386R-ST(377-391): p53K386R fused to SUMOylation site tag 377-391”: the Trans-SUMOylation entry with CSNK2B-U (western blot) is listed as “+”; with U-MK2 (western blot, Table 2), “−”.

(Values after patent publication US8551717B2, “Method for determining sumoylation” (Medizinische Hochschule Hannover, priority 2008, dated 2013).)
